Data taken from publication PMC8808179 (The Journal of Biological Chemistry, 2021).

T1: cynomolgus monkey (nonhuman primate) IL-13 (Macaca fascicularis)
T1 chain: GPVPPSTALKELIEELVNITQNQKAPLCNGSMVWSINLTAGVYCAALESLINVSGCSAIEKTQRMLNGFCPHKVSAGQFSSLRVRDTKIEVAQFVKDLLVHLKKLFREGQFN


What was measured:
[1] = molecular target: human interleukin (IL)-13 (Homo sapiens, UniProt P35225); assay: KinExA
[2] = molecular target: T1, cynomolgus monkey (nonhuman primate) …; assay: KinExA
[3] = molecular target: T1, cynomolgus monkey (nonhuman primate) …; assay: flow cytometry on cells

Chain of human interleukin (IL)-13 (P35225 25-146): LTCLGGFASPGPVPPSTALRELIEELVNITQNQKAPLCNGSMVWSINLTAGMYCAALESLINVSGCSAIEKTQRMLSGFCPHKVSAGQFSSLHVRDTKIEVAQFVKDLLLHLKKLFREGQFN

| Binder | Kd [1] [pM] | Kd [2] [pM] | binding result [3] |
| --- | --- | --- | --- |
| antibody 731 (antibody, V domains shown) VH: EVQLLESGGGLVQPGGSLRLSCAASGFTFSSYAMSWVRQAPGKGLEWVSAFSGSGGSTYYADSVKGRFTISRDNSKNTLYLQMNSLRAEDTAVYYCVQDGLGPYFYNYGMDVWGQGTTVTVSS VL: SYELTQPPSVSVSPGQTASITCSGDKLGDKYTCWFQQKPGQSPVLVIYHDSKRPSGIPERFSGSNSGDTATLTISGTQAMDEADYYCQAWDSSTYVFGTGTKVTVL | 1.9 | 3550 |  |
| MMAb2 (LC2/HC2) (antibody, V domains shown) VH: EVQLLESGGGLVQPGGSLRLSCAASGFTFSSYAGSWVRQAPGKGLEWVSAFSGSGGSTYYADSVKGRFTISRDNSKNTLYLQMNSLRAEDTAVYYCVQDGLGPYFYNYGMDVWGQGTTVTVSS VL: SYELTQPPSVSVSPGQTASITCSGDKLGDKYAFWFQQKPGQSPVLVIYHDSKRPSGIPERFSGSNSGDTATLTISGTQAMDEADYYCQAWDSSTYVFGTGTKVTVL | 0.142 | 12.4 |  |
| MMAb1 (LC1/HC2) (antibody, V domains shown) VH: EVQLLESGGGLVQPGGSLRLSCAASGFTFSSYAGSWVRQAPGKGLEWVSAFSGSGGSTYYADSVKGRFTISRDNSKNTLYLQMNSLRAEDTAVYYCVQDGLGPYFYNYGMDVWGQGTTVTVSS VL: SYELTQPPSVSVSPGQTASITCSGDKLGDKYSFWFQQKPGQSPVLVIYHDSKRPSGIPERFSGSNSGDTATLTISGTQAMDEADYYCQAWDSSTYVFGTGTKVTVL | 0.295 | 18.7 |  |
| MMAb3 (LC1/HC1) (antibody, V domains shown) VH: EVQLLESGGGLVQPGGSLRLSCAASGFTFSSYAMSWVRQAPGKGLEWVSAFSGWDVSTYYADSVKGRFTISRDNSKNTLYLQMNSLRAEDTAVYYCVQDGLGPYFYNYGMDVWGQGTTVTVSS VL: SYELTQPPSVSVSPGQTASITCSGDKLGDKYSFWFQQKPGQSPVLVIYHDSKRPSGIPERFSGSNSGDTATLTISGTQAMDEADYYCQAWDSSTYVFGTGTKVTVL | 0.034 | 5.1 |  |
| HC1 (heavy-chain variant of Ab731 with the parental light chain), membrane-tethered on the cell surface (antibody, V domains shown) VH: EVQLLESGGGLVQPGGSLRLSCAASGFTFSSYAMSWVRQAPGKGLEWVSAFSGWDVSTYYADSVKGRFTISRDNSKNTLYLQMNSLRAEDTAVYYCVQDGLGPYFYNYGMDVWGQGTTVTVSS VL: SYELTQPPSVSVSPGQTASITCSGDKLGDKYTCWFQQKPGQSPVLVIYHDSKRPSGIPERFSGSNSGDTATLTISGTQAMDEADYYCQAWDSSTYVFGTGTKVTVL |  |  | binds |
| HC2 (heavy-chain variant of Ab731 with the parental light chain), membrane-tethered on the cell surface (antibody, V domains shown) VH: EVQLLESGGGLVQPGGSLRLSCAASGFTFSSYAGSWVRQAPGKGLEWVSAFSGSGGSTYYADSVKGRFTISRDNSKNTLYLQMNSLRAEDTAVYYCVQDGLGPYFYNYGMDVWGQGTTVTVSS VL: SYELTQPPSVSVSPGQTASITCSGDKLGDKYTCWFQQKPGQSPVLVIYHDSKRPSGIPERFSGSNSGDTATLTISGTQAMDEADYYCQAWDSSTYVFGTGTKVTVL |  |  | binds |
